{"source": "the RNAGym collection of RNA variant scans (doi:10.7554/elife.90254)", "parents": {"B1": {"name": "LINE1-full (parent)", "chain": "UACGUAGGUGGUUUUCCCCUGAUAGUGCUAAGGGGGCCUGGAAGUUUGGACUGGGCAGAGCUCAACACAGCGUGGCAAAGUGGCUGUGGCUAGACUGCCUCUCUGGAUUCCUCGUCACUCAGCAGGGCAUCUCUGAGAGAAAUGCC"}}, "data": [{"variants_of": "B1", "assay": "self-cleavage, relative activity (ratio to wild type); higher = more cleavage; in vitro, sequencing; the parent is a self-cleaving ribozyme", "values": [{"variant": "UACGUAGGUGGUUUUCCCCUGAUAGUGCUAAGGGGGCCCGGAAGUUUGGACUGGGCAGAGCUCAACACAGCGUGGCAAAGUGGCUGUGGCUAGACUGCUUCUCUGGAUUCCUCGUCACUCAGCAGGGCAUCUCUGAGAGAAAUGCC", "note": "[U39C C99U]", "self-cleavage": 0.5}, {"variant": "UACGUAGGUGGUUUUCCCCUGAUAGUGCUAAGGGGGCCCGGAAGUUUGGACUGGGCAGAGCUCAACACAGCGUGGCAAAGUGGCUGUGGCUAGACUGCCUCUCUGGAUUCCUCGUCACUCAGCAGGGCAUCUCUGAGAGAAAUGUC", "note": "[U39C C145U]", "self-cleavage": 0.99}, {"variant": "UACGUAGGUGGUUUUCCCCUGAUAGUGCUAAGGGGGCCCGGAAGUUAGGACUGGGCAGAGCUCAACACAGCGUGGCAAAGUGGCUGUGGCUAGACUGCCUCUCUGGAUUCCUCGUCACUCAGCAGGGCAUCUCUGAGAGAAAUGCC", "note": "[U39C U47A]", "self-cleavage": 1.15}, {"variant": "UACGUAGGUGGUUUUCCCCUGAUAGUGCUAAGGGGGCCCGGAAGUGUGGACUGGGCAGAGCUCAACACAGCGUGGCAAAGUGGCUGUGGCUAGACUGCCUCUCUGGAUUCCUCGUCACUCAGCAGGGCAUCUCUGAGAGAAAUGCC", "note": "[U39C U46G]", "self-cleavage": 1.75}, {"variant": "UACGUAGGUGGUUUUCCCCUGAUAGUGCUAAGGGGGCCCGGAAGUUUGGACUGGGCAGAGCUCAACACAGCGUGGCAAAGUGGCUGUGGCUAGACUGCCUCUCUGGAUUCCUCGUCACUCAGCAGGGCAUCUCUGAGAGAAGUGCC", "note": "[U39C A142G]", "self-cleavage": 1.18}, {"variant": "UACGUAGGUGGUUUUCCCCUGAUAGUGCUAAGGGGGCCCGGAAGUUUGGACUGGGCAGAGCUCAACACAGCGUGGCAAAGUGGCUGUGGCUAGACUGCCUCUCUGGAUUCCUCGUCACUCAGCAGGGCAUUUCUGAGAGAAAUGCC", "note": "[U39C C131U]", "self-cleavage": 1}, {"variant": "UACGUAGGUGGUUUUCCCCUGAUAGUGCUAAGGGGGCCCGGAAGUUUGGACUGGGCAGAGCUCAACACAGCGUGGCAAAGUGGCUGUGGCUAGACUGCCUCUCUUGAUUCCUCGUCACUCAGCAGGGCAUCUCUGAGAGAAAUGCC", "note": "[U39C G105U]", "self-cleavage": 0.85}, {"variant": "UACGUAGGUGGUUUUCCCCUGAUAGUGCUAAGGGGGCCCGGAAGUUUGGACUGGGCAGAGCUCAACACAGCGUGGCAAAGUGGCUGUGGCUAGACUGCCUCUCUGGAUUCCUCGUCACUCAGCAGGGCAUCUCUGAGAGAGAUGCC", "note": "[U39C A141G]", "self-cleavage": 1.11}, {"variant": "UACGUAGGUGGUUUUCCCCUGAUAGUGCUAAGGGGGCCCGGAAGUUUGGACUGGACAGAGCUCAACACAGCGUGGCAAAGUGGCUGUGGCUAGACUGCCUCUCUGGAUUCCUCGUCACUCAGCAGGGCAUCUCUGAGAGAAAUGCC", "note": "[U39C G55A]", "self-cleavage": 0.08}, {"variant": "UACGUAGGUGGUUUUCCCCUGAUAGUGCUAAGGGGGCCCGGAAGUUUGGACUGGGCAGAGCUCAACACAGCGUGGCAAAGUGGCGGUGGCUAGACUGCCUCUCUGGAUUCCUCGUCACUCAGCAGGGCAUCUCUGAGAGAAAUGCC", "note": "[U39C U85G]", "self-cleavage": 0.04}, {"variant": "UACGUAGGUGGUUUUCCCCUGAUAGUGCUAAGGGGGCCCGGAAGUUUGGACUGGGCAGAGCUCAACACAGCGUGGCAAAGUGGCUGUGGCUAGACUGCCUCUCUGGAUUCCUCGUCACUCAGCAGGGCAUCUCUGAGAGUAAUGCC", "note": "[U39C A140U]", "self-cleavage": 1.22}, {"variant": "UACGUAGGUGGUUUUCCCCUGAUAGUGCUAAGGGGGCCCGGAAGUUUGGACUGGGCAGAGCUCAACACAGCGUGGCAAAGUGGCUGUGGCUAGACUGCCUCUCUGGAUUCCUCGUCACUCAGCAGGGCAUCUCUGAGAGGAAUGCC", "note": "[U39C A140G]", "self-cleavage": 1.3}, {"variant": "UACGUAGGUGGUUUUCCCCUGAUAGUGCUAAGGGGGCCCGGAAGUUUGGACUGGGCAGAGCUCAACACAGAGUGGCAAAGUGGCUGUGGCUAGACUGCCUCUCUGGAUUCCUCGUCACUCAGCAGGGCAUCUCUGAGAGAAAUGCC", "note": "[U39C C71A]", "self-cleavage": 0.09}, {"variant": "UACGUAGGUGGUUUUCCCCUGAUAGUGCUAAGGGGGCCCGGAAGUUUGGACUGGGCAGAGCUUAACACAGCGUGGCAAAGUGGCUGUGGCUAGACUGCCUCUCUGGAUUCCUCGUCACUCAGCAGGGCAUCUCUGAGAGAAAUGCC", "note": "[U39C C63U]", "self-cleavage": 0.25}, {"variant": "UACGUAGGUGGUUUUCCCCUGAUAGUGCUAAGGGGGCCCGGAAGUUUGGACUGGGCAGAGCUAAACACAGCGUGGCAAAGUGGCUGUGGCUAGACUGCCUCUCUGGAUUCCUCGUCACUCAGCAGGGCAUCUCUGAGAGAAAUGCC", "note": "[U39C C63A]", "self-cleavage": 0.05}, {"variant": "UACGUAGGUGGUUUUCCCCUGAUAGUGCUAAGGGGGCCCGGAAGUUUGGACUGGGCAGAGCCCAACACAGCGUGGCAAAGUGGCUGUGGCUAGACUGCCUCUCUGGAUUCCUCGUCACUCAGCAGGGCAUCUCUGAGAGAAAUGCC", "note": "[U39C U62C]", "self-cleavage": 0.09}, {"variant": "UACGUAGGUGGUUUUCCCCUGAUAGUGCUAAGGGGGCCCGGAAGUUUGGACUGGGCAGAGCUCAACACAGCGUGGCAAAGUGGCUGUGGCUAGACUGCCUCUCUGGAUUCCUUGUCACUCAGCAGGGCAUCUCUGAGAGAAAUGCC", "note": "[U39C C113U]", "self-cleavage": 1.26}, {"variant": "UACGUAGGUGGUUUUCCCCUGAUAGUGCUAAGGGGGCCCGGAAGUUUGGACUGGGCAGAGCUCAACACAGCGUGGCAAAGUGGCUGUGGCUAGACUGCCUCUCUGGAUUCCUCGUCACUCAGUAGGGCAUCUCUGAGAGAAAUGCC", "note": "[U39C C123U]", "self-cleavage": 0.9}, {"variant": "UACGUAGGUGGUUUUCCCCUGAUAGUGCUAAGGGGGCCCAGAAGUUUGGACUGGGCAGAGCUCAACACAGCGUGGCAAAGUGGCUGUGGCUAGACUGCCUCUCUGGAUUCCUCGUCACUCAGCAGGGCAUCUCUGAGAGAAAUGCC", "note": "[U39C G40A]", "self-cleavage": 0.73}]}]}
